Laboratory results published in patent US9956304B2, “Contrast agents, methods for preparing contrast agents, and methods of imaging” (GEORGIA STATE UNIVERSITY RESEARCH FOUNDATION, INC., priority 2012, dated 2018).
Where “and” joins values, the source holds several entries; their conditions need not be identical. Identical values can stand only once.

Legend:
[1] = Gd3+ binding affinity by Tb3+-chelator buffer system and Gd3+ competition; details: vs wild type protein scaffold
[2] = Water coordination number by Tb3+ luminescence lifetime; type: physicochemical; details: Tb^3+ luminescence lifetime in H2O and D2O
Experimental: The water coordination number of Tb^3+ in ProCA was measured by Tb^3+ luminescence lifetime experiments. The determined water number for calcium-binding protein WT is 1.3, which is consistent with reported value^31.
Tb^3+ luminescent life time decay in H2O and D2O solvents is measured to characterize the water coordination number of the inner sphere of metal binding sites. WT calcium-binding protein has averaged water number of 1.3, which is consistent with reported value.

[3] = r1 and r2 relaxivity, mini-spec 60 MHz 37 C; type: physicochemical
[4] = r1 relaxivity at 7 T, inversion recovery; type: physicochemical; details: room temperature
Description: With the development of high field MRI scanner, there is a strong need to develop the contrast agents with high relaxivity in high magnetic field strength. However, the relaxivity of macromolecular contrast agents always has dramatic drop at high magnetic field. Caravan and Luther point out the contrast agents with optimized relaxivity in high field should have a rotation correlation time (τR) around 2 ns. We tested our Gd-calcium-binding protein variants in 7 T Varian MRI scanner using inversion recovery sequence. […] Other ProCA3s also have a per Gd r1 relaxivity around 20 mM^−1s^−1 at 7 T and room temperature.

[5] = In vitro MRI detection limit, T1-weighted spin echo at 7 T; type: physicochemical; details: printed partly as 'at least'
Description: Less contrast agents are acquired to acquired good image enhancement when the relaxivity of the contrast agent improved.

[6] = T1- and T2-weighted MRI of liver and blood vessels; type: in vivo, mice
Experimental: Because the enhanced T1- and T2-weighted images have different effects of imaging contrast (brighter or darker, respectively), there is an enhanced probability of detecting the targeted tumor tissue. In contrast, the currently available approved liver contrast agents such as Eovist® have a very short fast phase (sec.) and liver uptake phase (approximately 3 min) in human. The mouse halftime is much shorter. Due this limitation, with these agents, it is not possible to obtain both high quality imaging for small animal. For human, their applications are also limited by their low relaxivity and short half-life. It is possible to obtain very high quality imaging by applying our contrast agent to both low and high field strengths such as 0.47-9.4 T.
Longer blood circulation of ProCA will benefit the MRI guided intervention therapy […], since such therapy usually performed for a very long time. Long blood circulation time of ProCA32 in blood also promising for the application of DCE-MRI. Arterial input function (AIF) in DCE-MRI experiment is the key experiment for successful calculating tumor permeability. However, it is hard to accurate determine AIF of current clinically available MRI contrast agents, since the blood circulation time of current clinically available MRI contrast agents is too short. […]

[7] = Heat stability during purification; type: physicochemical
Experimental: These protein solutions were load to FPLC equipped with Hi-trap Q column. After binding to the column, the unbounded component was first washed with 7 column volumes (CV) of buffer A (10 mM HEPES buffer at pH 8.0). Then, buffer B (10 mM HEPES buffer, 1 M NaCl at pH 8.0) concentration was increased to 25% within 7 CV. The column was further washed with 25% of buffer B for 2 CV and then increase to 100% of buffer B of 1 CV to wash out every component bounded to the column. The fractions with ProCA32 elutions were determined by UV abs and SDS-PAGE.

[8] = mouse, in vivo
[9] = mouse, in vivo; remark: listed apart in the source
[10] = Serum stability (SDS-PAGE, mass spectrum, immuno-blot); details: 50% serum

B1: ProCA32: parvalbumin-scaffold protein MRI contrast agent with two Gd3+ binding sites; calcium-binding protein variant (S56D, F103W) (protein)
chain: MSMTDLLNAEDIKKAVGAFSATDSFDHKKFFQMVGLKKKSADDVKKVFHMLDKDKDGFIEEDELGFILKGFSPDARDLSAKETKMLMAAGDKDGDGKIGVEEWSTLVAES
modifications: Gd3+ bound; ProCA3
higher Tb^3+ and Gd^3+ binding affinity compared with wild type [1]: 10^11 fold | water coordination number [2]: 0.4 | water coordination number ([2]; listed as PROCA32): 0.44 | per Gd r1 [3]: 30 mmol⁻¹ s⁻¹ | per particle r1 [3]: 60 mmol⁻¹ s⁻¹ | per Gd r1 relaxivity at 7 T [4]: 18 mM⁻¹ s⁻¹ | concentration detectable in vitro by MRI [5]: 2.5 µM and 2 µM | liver in T2-weighted sequence ([6]; 7 min after tail vein injection): the liver became darker | liver in T1-weighted spin echo ([6]; 15 min): the liver showing enhanced an MR signal | heat stability [7]: very stable at 90 °C | clearance [8]: about 0.13 l/kg | excretion half-life [8]: around 2.8 hours | blood half-life longer than that of Gd-DTPA [9]: more than 100 times | stable in serum [10]: at least 3 days
